Data taken from patent publication US20080153130.

T1: UBI::KALA hybrid protein substrate (ubiquitin fused to the 18-amino-acid KALA peptide)
T1 chain: DPGDKDGDGYISAAEAMA


How the values were obtained:
[1] = target: His6UBI::ElisaC hybrid protein (six histidines, ubiquitin and the C-terminal fragment of UBP1ΔC protease)
[2] = target: T1, UBI::KALA hybrid protein substrate …

Protein	preparative digestion of the hybrid protein, then Ni-NTA chromatography and SDS-PAGE [1]	proteolytic activity (cleavage of ubiquitin from the hybrid substrate, SDS-PAGE image analysis), fold over UBP1ΔC [1]	proteolytic activity (cleavage of ubiquitin from the hybrid substrate, SDS-PAGE image analysis), fold over UBP1ΔC [2]	proteolytic activity (cleavage of ubiquitin from the hybrid substrate, SDS-PAGE image analysis), reference enzyme [1]	proteolytic activity (cleavage of ubiquitin from the hybrid substrate, SDS-PAGE image analysis), reference enzyme [2]
UBP1ΔC2 protease (UBP1 truncated by 98 N-terminal amino acids, mutation C Gln754Leu, six histidine residues at its C-end) (protein) GGFIAGLVNDGNTCFMNSVLQSLASSRELMEFLDNNVIRTYEEIEQNEHNEEGNGQESAQDEATHKKNTRKGGKVYGKHKKKLNRKSSSKEDEEKSQEPDITFSVALRDLLSALNAKYYRDKPYFKTNSLLKAMSKSPRKNILLGYDQEDAQEFFQNILAELESNVKSLNTEKLDTTPVAKSELPDDALVGQLNLGEVGTVYIPTEQIDPNSILHDKSIQNFTPFKLMTPLDGITAERIGCLQCGENGGIRYSVFSGLSLNLPNENIGSTLKLSQLLSDWSKPEIIEGVECNRCALTAAHSHLFGQLKEFEKKPEGSIPEKPINAVKDRVHQIEEVLAKPVIDDEDYKKLHTANMVRKCSKSKQILISRPPPLLSIHINRSVFDPRTYMIRKNNSKVLFKSRLNLAPWCCDINEINLDARLPMSKKEKAAQQDSSEDENIGGEYYTKLHERFEQEFEDSEEEKEYDDAEGNYASHYNHTKDISNYDPLNGEVDGVTSDDEDEYIEETDALGNTIKKRIIEHSDVENENVKDNEELQEIDNVSLDEPKINVEDQLETSSDEEDVIPAPPINYARSFSTVPATPLTYSLRSVIVHYGTHNYGHYIAFRKYRGCWWRISDETVYVVDEAEVLSTPGVFMLFYEYDFDEETGKMKDDLEAILSNNEEDDEKEQEQKGVQEPKESQEQGEGEEQEEGQEQMKFERTEDHRDISGKDVNGSHHHHHH	High purity ElisaC protein was obtained, cleaved from 6HisUBI	the enzyme UBP1ΔC2 is 5-6 times more active than mutant UBP1 AC	the enzyme UBP1ΔC2 is 5-6 times more active than mutant UBP1 AC	–	–
UBP1ΔC protease (UBP1 deletion mutant with mutation C at position 754) (protein) GGDHLNYIVESVSEMTTNFRNNNSLSRWLPRSKFTHLDEEILKRGGFIAGLVNDGNTCFMNSVLQSLASSRELMEFLDNNVIRTYEEIEQNEHNEEGNGQESAQDEATHKKNTRKGGKVYGKHKKKLNRKSSSKEDEEKSQEPDITFSVALRDLLSALNAKYYRDKPYFKTNSLLKAMSKSPRKNILLGYDQEDAQEFFQNILAELESNVKSLNTEKLDTTPVAKSELPDDALVGQLNLGEVGTVYIPTEQIDPNSILHDKSIQNFTPFKLMTPLDGITAERIGCLQCGENGGIRYSVFSGLSLNLPNENIGSTLKLSQLLSDWSKPEIIEGVECNRCALTAAHSHLFGQLKEFEKKPEGSIPEKPINAVKDRVHQIEEVLAKPVIDDEDYKKLHTANMVRKCSKSKQILISRPPPLLSIHINRSVFDPRTYMIRKNNSKVLFKSRLNLAPWCCDINEINLDARLPMSKKEKAAQQDSSEDENIGGEYYTKLHERFEQEFEDSEEEKEYDDAEGNYASHYNHTKDISNYDPLNGEVDGVTSDDEDEYIEETDALGNTIKKRIIEHSDVENENVKDNEELQEIDNVSLDEPKINVEDQLETSSDEEDVIPAPPINYARSFSTVPATPLTYSLRSVIVHYGTHNYGHYIAFRKYRGCWWRISDETVYVVDEAEVLSTPGVFMLFYEYDFDEETGKMKDDLEAILSNNEEDDEKEQEQKGVQEPKESQEQGEGEEQEEGQEQMKFERTEDHRDISGKDVNGSHHHHHH	–	–	–	the enzyme UBP1ΔC2 is 5-6 times more active than mutant UBP1 AC	the enzyme UBP1ΔC2 is 5-6 times more active than mutant UBP1 AC
